Consider 17 molecules from patent US20090175786A1 (published 2009).

Read-outs that look alike come from different tables or passages of the source. Where no end group is shown, it is not given here. [ ]: non-standard residue; d: D form. The star is where a group is joined. DOTA = O=C(O)CN1CCN(CC(=O)O)CCN(CC(=O)*)CCN(CC(=O)O)CC1; 4Abz = Nc1ccc(C(=O)O)cc1; Dap = NC[C@H](N)C(=O)O; AEEA = NCCOCCOCC(=O)O; Me2Gly = CN(C)CC(=O)*; Acm = CC(=O)NC* Bounds are passed on as bounds.

In assay [1] the target is T1, bombesin receptor subtype 3 (BB3-R), human (human, UniProt P32247 1-399).
T1 construct: whole, on cells; tissue sections, receptor autoradiography
T1 sequence (looked up): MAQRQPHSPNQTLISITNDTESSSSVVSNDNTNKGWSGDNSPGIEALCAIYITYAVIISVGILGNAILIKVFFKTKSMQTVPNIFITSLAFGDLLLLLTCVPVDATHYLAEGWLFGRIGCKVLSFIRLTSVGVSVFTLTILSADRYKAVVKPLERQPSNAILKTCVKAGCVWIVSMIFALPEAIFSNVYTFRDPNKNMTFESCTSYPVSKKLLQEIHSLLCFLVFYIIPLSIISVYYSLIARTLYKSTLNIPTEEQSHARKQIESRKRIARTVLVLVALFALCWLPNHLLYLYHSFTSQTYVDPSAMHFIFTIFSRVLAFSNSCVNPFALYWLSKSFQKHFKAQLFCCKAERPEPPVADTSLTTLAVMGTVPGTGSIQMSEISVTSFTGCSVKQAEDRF
Put plainly: receptor autoradiography on human tumour sections.
Text: Human ileal carcinoid tissue was used as a source for NMB-R, human prostate carcinoma for GRP-R and human bronchial carcinoid for BB3-R subtype receptors.

Assay [2] deals with T2, gastrin releasing peptide receptor (GRP-R), human (human, UniProt P30550 1-384).
T2 construct: whole, on cells; also called GRP receptor; GRP-preferring receptor
Kind of assay: 125I-BBN competition, PC3 cells.

Assay [3] has as its target T2, gastrin releasing peptide receptor …. Kind of assay: 125I-BBN competition, PC3 cells. This is another data set of the same source.
For assay [4], the target named is T3, neuromedin-B preferring receptor (NMB-R) of C6 rodent glioblastoma cells (rodent, UniProt P24053 1-390, limits assumed).
T3 construct: whole, on cells; also called C6/NMB-R
T3 sequence (looked up): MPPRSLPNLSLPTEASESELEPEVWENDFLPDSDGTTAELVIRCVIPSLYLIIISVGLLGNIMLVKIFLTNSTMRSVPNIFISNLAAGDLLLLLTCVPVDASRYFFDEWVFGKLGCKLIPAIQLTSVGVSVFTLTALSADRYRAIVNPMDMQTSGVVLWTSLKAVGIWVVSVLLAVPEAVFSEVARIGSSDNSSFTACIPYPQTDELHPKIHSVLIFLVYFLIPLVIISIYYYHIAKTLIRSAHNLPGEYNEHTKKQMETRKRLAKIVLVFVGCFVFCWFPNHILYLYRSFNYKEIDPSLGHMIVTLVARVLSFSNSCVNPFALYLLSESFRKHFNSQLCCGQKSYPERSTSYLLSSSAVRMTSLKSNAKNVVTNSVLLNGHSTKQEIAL
Kind of assay: 125I-NMB competition, C6 cells.
Experimental: The binding parameters obtained from the studies were analyzed using a one-site competition non-linear regression analysis with GraphPad Prism.

In assay [5] the target is T2, gastrin releasing peptide receptor …. Put plainly: 125I-BBN competition, PC3 cells. The source holds these as a separate data set.
Experimental: (§1) All compounds tested were dissolved in binding buffer and appropriate dilutions were also done in binding buffer. PC3 cells for assay were seeded at a concentration of 2.0×10⁴/well either in 96-well black/clear collagen I cellware plates (Beckton Dickinson Biocoat). Plates were used for binding studies on day 2 post-plating. The plates were checked for confluency (>90% confluent) prior to assay. […] The studies were conducted with an assay volume of 75 μL per well. Triplicate wells were used for each data point. After the addition of the appropriate solutions, plates were incubated for 1 hour at 4° C. Incubation was ended by the addition of 200 μL of ice-cold incubation buffer. Plates were washed 5 times and blotted dry. Radioactivity was detected using either a LKB CompuGamma counter or a microplate scintillation counter.
Assay [6] has the same target. Kind of assay: 125I-BBN competition, PC3 cells. The source holds these as a separate data set.
Experimental: as §1
Assay [7] has the same target. Kind of assay: displacement of 125I-universal ligand, human tumour sections. For orientation: Displacement assays read how much labelled ligand stays bound in the presence of the test substance.
Assay [8] addresses T3, neuromedin-B preferring receptor …. Kind of assay: 125I-NMB competition, C6 cells. This is another data set of the same source.

T2 sequence (P30550 whole entry): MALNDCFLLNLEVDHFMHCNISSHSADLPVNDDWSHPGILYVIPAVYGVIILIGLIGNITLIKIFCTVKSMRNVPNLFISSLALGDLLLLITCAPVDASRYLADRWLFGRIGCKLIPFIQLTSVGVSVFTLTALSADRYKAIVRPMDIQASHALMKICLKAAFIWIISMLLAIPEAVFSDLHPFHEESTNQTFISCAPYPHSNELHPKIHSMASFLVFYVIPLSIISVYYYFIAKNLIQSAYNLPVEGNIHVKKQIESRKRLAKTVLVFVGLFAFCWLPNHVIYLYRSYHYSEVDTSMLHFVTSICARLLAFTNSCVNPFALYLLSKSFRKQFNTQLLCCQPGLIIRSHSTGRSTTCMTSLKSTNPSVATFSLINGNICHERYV

B1: ^177Lu-L70 (peptide)
peptide: QWAVGHLM
modifications: N-terminus: 177Lu complex of DO3A-monoamide-Gly-4-aminobenzoic acid; C-terminal amide
notes: also called Lutetium complex of L70
Regarding B1, the binding result in assay [1] is recorded as “no binding”.

B2: N,N-dimethylglycine-Ser-Cys(Acm)-Gly-8-amino-3,6-dioxaoctanoic acid-Arg-BBN(7-14) (peptide)
peptide: RQWAVGHLM
modifications: N-terminus: N,N-dimethylglycine-Ser-Cys(Acm)-Gly-8-amino-3,6-dioxaoctanoic acid; C-terminal amide
notes: also called L9
Turning to B2, the IC50 in assay [2] was 6 nM. This counts as single-digit nanomolar.

B3: N,N-dimethylglycine-Ser-Cys(Acm)-Gly-8-amino-3,6-dioxaoctanoic acid-Glu-BBN(7-14) (peptide)
peptide: EQWAVGHLM
modifications: N-terminus: N,N-dimethylglycine-Ser-Cys(Acm)-Gly-8-amino-3,6-dioxaoctanoic acid; C-terminal amide
notes: also called L13
In the case of B3, the IC50 in assay [2] was greater than 50 nM.

B4: N,N-dimethylglycine-Ser-Cys(Acm)-Gly-8-amino-3,6-dioxaoctanoic acid-Lys-BBN(7-14) (peptide)
peptide: KQWAVGHLM
modifications: N-terminus: N,N-dimethylglycine-Ser-Cys(Acm)-Gly-8-amino-3,6-dioxaoctanoic acid; C-terminal amide
notes: also called L8
As to B4, in assay [2], the concentration for half-maximal inhibition (IC50) is 4 nM.

B5: N,N-dimethylglycine-Ser-Cys(Acm)-Gly-N-4-aminoethyl-N-1-piperazineacetic acid-Asp-BBN(7-14) (peptide)
peptide: DQWAVGHLM
modifications: N-terminus: N,N-dimethylglycine-Ser-Cys(Acm)-Gly-N-4-aminoethyl-N-1-piperazineacetic acid; C-terminal amide
notes: also called L27
Turning to B5, in assay [2], the IC50 is greater than 50 nM.

B6: N,N-dimethylglycine-Ser-Cys(Acm)-Gly-N-1-piperazineacetic acid-Asp-BBN(7-14) (peptide)
peptide: DQWAVGHLM
modifications: N-terminus: N,N-dimethylglycine-Ser-Cys(Acm)-Gly-N-1-piperazineacetic acid; C-terminal amide
notes: also called L33
In assay [2], B6 came in with an IC50 greater than 50 nM.

B7: N,N-dimethylglycine-Ser-Cys(Acm)-Gly-8-amino-3,6-dioxaoctanoic acid-Asp-BBN(7-14) (peptide)
peptide: DQWAVGHLM
modifications: N-terminus: N,N-dimethylglycine-Ser-Cys(Acm)-Gly-8-amino-3,6-dioxaoctanoic acid; C-terminal amide
notes: also called L10
In assay [2], B7 had an IC50 greater than 50 nM.

B8: N,N-dimethylglycine-Ser-Cys(Acm)-Gly-SS-QWAVGHLM-NH2 (peptide)
peptide: [Me2Gly]SC(Acm)GSSQWAVGHLM-NH2
SMILES: CSCC[C@H](NC(=O)[C@H](CC(C)C)NC(=O)[C@H](Cc1c[nH]cn1)NC(=O)CNC(=O)[C@@H](NC(=O)[C@H](C)NC(=O)[C@H](Cc1c[nH]c2ccccc12)NC(=O)[C@H](CCC(N)=O)NC(=O)[C@H](CO)NC(=O)[C@H](CO)NC(=O)CNC(=O)[C@H](CSCNC(C)=O)NC(=O)[C@H](CO)NC(=O)CN(C)C)C(C)C)C(N)=O
In assay [3], B8 came in with an IC50 of 10 nM.

B9: N,N-dimethylglycine-Ser-Cys(Acm)-Gly-KE-QWAVGHLM-NH2 (peptide)
peptide: [Me2Gly]SC(Acm)GKEQWAVGHLM-NH2
SMILES: CSCC[C@H](NC(=O)[C@H](CC(C)C)NC(=O)[C@H](Cc1c[nH]cn1)NC(=O)CNC(=O)[C@@H](NC(=O)[C@H](C)NC(=O)[C@H](Cc1c[nH]c2ccccc12)NC(=O)[C@H](CCC(N)=O)NC(=O)[C@H](CCC(=O)O)NC(=O)[C@H](CCCCN)NC(=O)CNC(=O)[C@H](CSCNC(C)=O)NC(=O)[C@H](CO)NC(=O)CN(C)C)C(C)C)C(N)=O
Molecule B9 had an IC50 in assay [4] of 60 nM. This lies in the double-digit nanomolar range.

B10: N,N-dimethylglycine-Ser-Cys(Acm)-Gly-SR-QWAVGHLM-NH2 (peptide)
peptide: [Me2Gly]SC(Acm)GSRQWAVGHLM-NH2
SMILES: CSCC[C@H](NC(=O)[C@H](CC(C)C)NC(=O)[C@H](Cc1c[nH]cn1)NC(=O)CNC(=O)[C@@H](NC(=O)[C@H](C)NC(=O)[C@H](Cc1c[nH]c2ccccc12)NC(=O)[C@H](CCC(N)=O)NC(=O)[C@H](CCCNC(=N)N)NC(=O)[C@H](CO)NC(=O)CNC(=O)[C@H](CSCNC(C)=O)NC(=O)[C@H](CO)NC(=O)CN(C)C)C(C)C)C(N)=O
As to B10, in assay [4], the 50% inhibitory concentration (IC50) came out at 2 nM.

B11: N,N-dimethylglycine-Ser-Cys(Acm)-Gly-SK-QWAVGHLM-NH2 (peptide)
peptide: [Me2Gly]SC(Acm)GSKQWAVGHLM-NH2
B11: the IC50 in assay [3] came to 2 nM. That is a single-digit nanomolar value.

B12: DO3A-monoamide-G-Abz4-QWAGHFL-NH2 (peptide)
peptide: {DOTA}-G[4Abz]QWAGHFL-NH2
SMILES: CC(C)C[C@H](NC(=O)[C@H](Cc1ccccc1)NC(=O)[C@H](Cc1c[nH]cn1)NC(=O)CNC(=O)[C@H](C)NC(=O)[C@H](Cc1c[nH]c2ccccc12)NC(=O)[C@H](CCC(N)=O)NC(=O)c1ccc(NC(=O)CNC(=O)CN2CCN(CC(=O)O)CCN(CC(=O)O)CCN(CC(=O)O)CC2)cc1)C(N)=O
notes: also called L224
For the molecule B12, the IC50 in assay [5] and in assay [6] was greater than 500 nM each time.

B13: N,N-dimethylglycine-Ser-Cys(Acm)-Gly-2,3-diaminopropionic acid-8-amino-3,6-dioxaoctanoic acid-Gly-BBN(7-14) (peptide)
peptide: {Me2Gly-Ser-Cys(Acm)}-G[Dap][AEEA]GQWAVGHLM-NH2
notes: same M-N-O-P-G as printed for L61, other MS; also called L26
On to B13, for which the half-inhibitory concentration (IC50) in assay [2] turned out to be 30 nM.

B14: ^175Lu-L70 (peptide)
peptide: QWAVGHLM
modifications: N-terminus: 175Lu complex of DO3A-monoamide-Gly-4-aminobenzoic acid; C-terminal amide
For the molecule B14, in assay [7], the IC50 worked out at 0.8 nM.

B15: WAVGHLM-NH2 (peptide)
peptide: WAVGHLM-NH2
notes: also called BBN8-14
Turning to B15, the IC50 in assay [4] and in assay [8] was greater than 800 nM in each case.

B16: DO3A-monoamide-G-Abz4-LWATGHFM-NH2 (peptide)
peptide: {DOTA}-G[4Abz]LWATGHFM-NH2
notes: also called L227
For B16, the IC50 in assay [4] was 0.8 nM; in assay [8], 0.07 nM.

B17: N,N-dimethylglycine-Ser-Cys(Acm)-Gly-8-amino-3,6-dioxaoctanoic acid-Arg-Gly-BBN(7-14) (peptide)
peptide: RGQWAVGHLM
modifications: N-terminus: N,N-dimethylglycine-Ser-Cys(Acm)-Gly-8-amino-3,6-dioxaoctanoic acid; C-terminal amide
notes: same M-N-O-P-G as printed for L22, other MS; also called L57
In the case of B17, the IC50 in assay [2] amounted to 50 nM.

As usually defined, the IC50 is the concentration needed to halve the response being measured. High values mean a need for much substance, low ones inhibition by little substance.
